The data set deals with T1, ScbR (Streptomyces coelicolor A3(2) M145) (UniProt Q7AKF1).
T1 sequence: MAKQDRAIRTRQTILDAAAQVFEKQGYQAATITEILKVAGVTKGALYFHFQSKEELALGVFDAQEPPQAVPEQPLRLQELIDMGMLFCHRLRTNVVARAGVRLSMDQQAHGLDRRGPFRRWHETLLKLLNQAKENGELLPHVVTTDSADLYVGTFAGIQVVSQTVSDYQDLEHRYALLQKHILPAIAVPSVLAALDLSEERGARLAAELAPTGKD
Put plainly: DNase I footprinting. The conditions noted are these: EMSA: 6-12 ng probe, ScbR 0.21-3.77 uM, ScbR2 0.207-4.15 uM; buffer, salt, pH and temperature not in material (as described in earlier work). (In general: In EMSA bound probe runs differently from free probe, usually more slowly.)

With “CCCTCATGTCCGAACAGCTCGACACCGCCGTCGAAACAGACGGCAAGGGCGACCTCGCCACGTTGTTCAACGGTGGGGACACCTTCTCCCATTGAAAACCGGCGAGGAGGTTTGTTAATCCCATGTTCCCTGGACCGACCTGTTTCGAGATCGAGGAGGACAGTTGAGCGCCACTTCTGCCCCCGCACCCCAGCACGGCATGACCTGGCTGGGAGCCATCGTGGAGGACGGCTTCACGGAGACGTTGCAGGACGGGCTCAG (double strand) [sco6268 promoter footprint probe]”, the binding entry is recorded as “binds”.
